Results reported in patent US7052704B2, “Methods and compositions for lipidization of hydrophilic molecules” (University of Southern California, priority 1995, dated 2006).

B1: BBIssPal: palmityl disulfide conjugate of BBI, made from thiolated BBI and Pal-PDC (conjugate, UniProt P01055 40-110, looked up)
Bowman-Birk type proteinase …: DDESSKPCCDQCACTKSNPPQCRCSDMRLNSCHSACKSCICALSYPAQCFCVDITDFCYEPCKPSEDDKEN
modifications: palmityl disulfide conjugate
notes: palmityl disulfide conjugate of BBI, made from thiolated BBI and Pal-PDC
B2: BBIssPal(4): BBI modified with 4 palmitic acids (conjugate, UniProt P01055 40-110, looked up)
Bowman-Birk type proteinase …: DDESSKPCCDQCACTKSNPPQCRCSDMRLNSCHSACKSCICALSYPAQCFCVDITDFCYEPCKPSEDDKEN
modifications: 4 palmityl disulfide groups
notes: BBI modified with 4 palmitic acids
B3: BBIssPal(2): BBI modified with 2 palmitic acids (conjugate, UniProt P01055 40-110, looked up)
Bowman-Birk type proteinase …: DDESSKPCCDQCACTKSNPPQCRCSDMRLNSCHSACKSCICALSYPAQCFCVDITDFCYEPCKPSEDDKEN
modifications: 2 palmityl disulfide groups
notes: BBI modified with 2 palmitic acids
B4: BBIssOleic: oleic acid conjugated BBI, made by the identical procedure as BBIssPal (conjugate, UniProt P01055 40-110, looked up)
Bowman-Birk type proteinase …: DDESSKPCCDQCACTKSNPPQCRCSDMRLNSCHSACKSCICALSYPAQCFCVDITDFCYEPCKPSEDDKEN
modifications: oleic acid disulfide conjugate
notes: oleic acid conjugated BBI, made by the identical procedure as BBIssPal

How the values were obtained:
C3H 10T1/2 cells = assay: Plating efficiency in conjunction with transformation assay; type: cell-based; settings: 200 cells/dish, 10 days; conjugates 1.0 μg/ml after MCA 1 μg/ml 24 hr
Experimental: The plating efficiency (PE) of the cells was also studied in conjunction with each of the transformation assays. To determine the PE of the cells in the different treatment groups, cells (200 cells/dish) were seeded into three 60-mm petri dishes per experiment group and treated in the identical manner as the transformation assay cells. The cells in these assays were terminated at 10 days, fixed with 100% methanol, and stained with giemsa; the colonies of 50 cells or more visible under a microscope were then counted. The plating efficiency is defined as the (number of colonies/number of cells seeded)*100.

[1] = system: C3H 10T1/2(clone 8) cells; assay: In vitro transformation assay (MCA-induced); type: cell-based; settings: for transformed foci in the dishes scored / Fraction of dishes containing transformed foci / No. of dishes with transformed foci/No. of dishes: MCA 1 μg/ml 24 hr, then conjugates 1.0 μg/ml for first three weeks; for Fraction of dishes containing transformed foci / No. of dishes with transformed foci/No. of dishes: scored at six weeks; for retention of the biological (anti-transformation) activity of BBI: 1.0 μg/ml
Experimental: Transformation assays were carried out using C3H 10T1/2(clone 8) cells according to the published recommendations [Reznikoff, C. A. et al. (1973) Cancer. Res. 33, 3239–3249; Reznikoff, C. A. et al. (1973) Cancer. Res. 33, 3231–3238]. Stock cultures of mycoplasma-free cells were maintained by passing 50,000 cells per 75 cm^2 flask every seven days. Using this schedule, the cells were always passed approximately 2 days before reaching confluence. The stock culture was grown in Eagle's basal medium supplemented with 10% FBS, penicillin (100 units), and streptomycin (100 μg) and used for the transformation assays at passages of 9 to 14. The cells were passed by treating the stock cells with trypsin (0.1%) in PBS for 5 min and quenching the trypsin with 5 ml of the medium. This procedure was adapted to minimize spontaneous transformation in the stock cultures and maximize the plating efficiency in the petri dishes. The FBS stock used in the cultures was pre-screened to ensure that the serum was able to support the expression and the growth of the transformed cells.
For the transformation assays, C3H 10T1/2 cells (1000/dish) were seeded into 60 mm petri dishes and allowed to grow in a humidified 5% CO2 atmosphere in Eagle's basal medium, supplemented with 10% FBS, penicillin (100 units), and streptomycin (100 μg), for 24 hr. Subsequently, the cells were initiated by treatment with 25 μl of the 3-methylcholanthrene (MCA) in acetone stock solution ([…]) to a final concentration of 1 μg/ml of MCA (5 μg/5 ml). The cells were allowed to grow in the presence of the carcinogen or solvent for 24 hr, and the medium in each dish was then replaced with fresh medium containing no carcinogen or solvent. The medium in the dishes was replaced twice per week for the first two weeks of the assay, and thereafter once a week for the remainder four weeks of the assay. In the experiments designed to determine the transformation inhibitory activity of the conjugates, the cells were maintained in the medium containing the conjugates (1 μg/ml) for the first three weeks of the assay; thereafter, the cells were maintained in medium containing no added conjugates.
Six weeks after the carcinogen treatment, the cells were inspected under a microscope for adherence to the culture dishes and were washed with PBS and then fixed in 100% methanol. The fixed monolayers were then stained with Giemsa stain. 20 dishes per group were treated in each experiment. In addition to the test groups, all the transformation assays contained at least three other groups: negative control (not treated with carcinogen or solvent), acetone control (treated with 25 μl of acetone), and positive control [treated with MCA (1 μg/ml) in 25 μl of acetone]. The transformed foci (>3 mm in diameter) in the plates were studied under a microscope and classified according to published guidelines as types I, II, or III [Landolph, J. R. (1985) Transfomatin assay of established cell lines: Mechanism and Application (ed. Kakunaga, T., and Yamasaki, H.) IARC Scientific Publications, Lyon, France pp. 185–201]. Briefly, type III foci were dense, multilayered, basophilic, areas of cell growth which stained to a deep blue color with Giemsa and had rough criss-crossed edges. Type II foci were also dense, multilayered, areas of cell growth, but were stained to a purple color with Giemsa and had smoother, more defined edges compared to Type III foci. Type I foci were not scored in the assay.
BBI, either as the free protein or in conjugated form to palmitic or oleic acid, was added to the cultures at 1.0 μg/ml for the first three weeks of the transformation assay period starting immediately after the MCA treatment. MCA-treated cells were exposed to 3-methylcholanthrene, dissolved in 25 /μl of acetone, at a concentration of 1 μg/ml for 24 hr. Acetone-treated cells were exposed to 25 μl of acetone for 24 hr only. […]

[2] = system: Human colon carcinoma cells (Caco-2)
[3] = mouse, in vivo, iv, 3 mg/kg
Caco-2 monolayers = assay: Transport of single- and multiple-conjugates across Caco-2 monolayers in transwells; type: cell-based, Human; settings: for order of the transport extent (cumulative transport): Caco-2 transwells, n=3
Experimental: Confluent cell monolayers, 2 to 3 weeks old, and having a TEER value of approximately 500 Ωcm^2, were first incubated with Dulbecco's MEM containing 1% of FBS for 30 min at 37° C. Subsequently, the incubation medium was removed, and the ^125I-BBI (10 μg/ml) conjugates in 1.5 ml of the medium was added to the apical chamber of the transwells. To the basal chamber, 2.5 ml of the medium was added and the transwells were incubated at 37° C. At predetermined times, the entire basal chamber medium (2.5 ml) from each transwell was removed and counted for radioactivity using a gamma counter. In each experiment, typically seven samples were taken at 1, 2, 3, 4, 5, 6 and 24 hr post-incubation. After the 24 hr samples were taken, the cell monolayers were rinsed three times with ice-cold PBS, cut out of the inserts, and counted for accumulated radioactivity using a gamma counter.
The integrity of the ^125I-BBI conjugates transported across the monolayers was studied using Sephadex G50 gel-filtration chromatography. Briefly, after the basal medium was sampled at 24 hr, 1.0 ml of the medium was centrifuged at 2000 rpm and then eluted from a G50 column (10 ml) using PBS; 1 ml fractions were collected and the fraction-associated radioactivity was determined using a gamma counter. Intact conjugates eluted at column void volume and fragments smaller than 1 kDa were eluted at or above the column volume.
In the transwell experiments, the conjugates were incubated with the apical side of the cells for 1 hr at 37° C. The transwells were then rinsed three times with ice-cold PBS and then reincubated with serum free medium. The release of the conjugates into the apical and the basal medium was chased for 24 hr by counting the entire basal or the apical medium at different times. The total counts obtained at the end of the chase period (transwells+media counts were added, and the release of the conjugates (% of total) at different times was calculated. To ensure that the counts obtained in the transwells at 24 hr were due to the presence of the conjugates in the cells and not non-specific binding to the plastic, the transwells were exposed to trypsin for 10 min, rinsed three times with ice-cold pbs, and subsequently counted for accumulated radioactivity.
BBI was modified with 2 or 4 palmitic acids, and the transport was determined in transwells. The cumulative transport of BBI, BBI modified with 4 palmitic acids, and BBI modified with 2 palmitic acids in Caco-2 monolayers were determined as BBI (ng/monolayer) ± SEM, n=3. The order of the transport extent was BBIssPal(4)>BBI>BBIssPal(2). The results of the internalization of the conjugates into the same cells were determined as the ng of BBI internalized per monolayer. […] The basal media obtained at 24 hr from the transwells was analyzed using a G50 column. […] However, a small, but significant, amount of the basal media of BBIssPal(2) consisted of intact conjugate. This quantity consisted of between about 10 and about 20% of the total radioactivity present in the basal medium.

Row | Molecule | Plating Efficiency (%) (C3H 10T1/2 cells) | transformed foci in the dishes scored [1] | Fraction of dishes containing transformed foci [1] | No. of dishes with transformed foci/No. of dishes [1] | binding to BSA [2] | internalization, fold increase over that of BBI [2] | reduction of uptake after reduction with DTT [2] | reduction of uptake by defatted-BSA [2] | uptake, fold higher than 125I-BBI [2] | uptake, fold higher than native-BBI [2] | uptake, fold higher than that of 125I-BBI [2] | kidney clearance, fold lower than native-BBI [3] | liver accumulation, fold higher than BBI [3] | lung accumulation, fold higher than BBI [3] | retention in the liver at 24 hr [3] | retention of the biological (anti-transformation) activity of BBI [1] | order of the transport extent (cumulative transport) (Caco-2 monolayers) | transcytosis across the monolayers (G50 analysis of basal media) (Caco-2 monolayers; basal media at 24 hr) | internalization into the cells (rank) (Caco-2 monolayers; same Caco-2 monolayers, per monolayer) | blood levels, fold higher than BBI [3]
1 | Cc1ccc2cc3c(ccc4ccccc43)c3c2c1CC3 [MCA, 3-methylcholanthrene, reference compound] | 21 ± 3.0% | 6 out of the 19 dishes scored contained type III foci | 0.32 | 6/19 |  |  |  |  |  |  |  |  |  |  |  |  |  |  |  | 
2 | B1 | 23 ± 3.0% | one type II focus out of the 20 dishes | 0.05 | 1/20 | binds strongly to BSA | 35 fold | approximately 80% | 82% | approximately 100 fold | 10 fold | 80 fold | about 4 fold | approximately 5 fold | approximately 2 fold | remained high in the liver even at 24 hr post-injection | retained the original biological activity of BBI |  |  |  | 
3 | B2 |  |  |  |  |  |  |  |  |  |  |  |  |  |  |  |  | BBIssPal(4)>BBI>BBIssPal(2) | neither BBI nor BBIssPal(4) was transcytosed | highest uptake | 
4 | B3 |  |  |  |  |  |  |  |  |  |  |  |  |  |  |  |  | BBIssPal(4)>BBI>BBIssPal(2) |  |  | 
5 | B4 | 24 ± 3.5% | no transformed foci | 0 | 0/20 |  |  |  |  | about 108 fold |  |  | about 4 fold | about 4 fold | about 2 fold | significant levels of the conjugate present in the liver even at 24 hr post-injection | retained the original biological activity of BBI |  |  |  | about 4 fold
